Assay in all cases: cell-based or functional assay
Assay [1] deals with T1, melanocortin receptor-4 (MC4r), recombinant on HEK-293 cells (human, UniProt P32245 1-332).
In assay [2] the target is T2, melanocortin receptor-1 (MC1r), native on the human HBL cell line (human, UniProt Q01726 1-317).
The target of assay [3] is melanocortin receptor-5 (MC5r), assay other than CEREP.
For assay [4], the target named is T3, melanocortin receptor-3 (MC3r), recombinant on HEK-293 cells.
In assay [5] the target is T4, human melanocortin receptor-5 (MC5), on CHO-K1 cells, CEREP assay 1869 (human, UniProt P33032 1-325).
T4 sequence (P33032 whole entry): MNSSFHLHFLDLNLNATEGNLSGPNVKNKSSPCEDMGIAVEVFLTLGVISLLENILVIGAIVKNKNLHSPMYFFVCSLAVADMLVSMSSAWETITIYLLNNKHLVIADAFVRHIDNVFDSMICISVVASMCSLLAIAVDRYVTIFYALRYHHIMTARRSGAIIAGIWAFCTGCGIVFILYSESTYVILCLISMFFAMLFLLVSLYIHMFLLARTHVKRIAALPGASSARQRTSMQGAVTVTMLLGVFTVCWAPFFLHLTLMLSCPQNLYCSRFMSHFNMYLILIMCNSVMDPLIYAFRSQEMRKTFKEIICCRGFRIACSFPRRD
The target of assay [6] is T5, melanocortin receptor-1 (MC1r), native on the mouse B16-F10 cell line (mouse, UniProt Q01727 1-315).
T5 sequence (Q01727 whole entry): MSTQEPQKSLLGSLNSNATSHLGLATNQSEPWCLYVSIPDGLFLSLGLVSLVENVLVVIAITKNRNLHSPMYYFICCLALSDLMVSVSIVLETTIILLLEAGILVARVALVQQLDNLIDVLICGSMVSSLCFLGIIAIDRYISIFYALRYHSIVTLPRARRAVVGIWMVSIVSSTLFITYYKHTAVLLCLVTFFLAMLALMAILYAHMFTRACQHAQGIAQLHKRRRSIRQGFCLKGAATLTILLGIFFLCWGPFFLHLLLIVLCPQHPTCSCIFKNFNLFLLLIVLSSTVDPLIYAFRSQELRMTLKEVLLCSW
Assay [7] concerns the target T1, melanocortin receptor-4 (MC4r), …. The source holds these as a separate data set.
In assay [8] the target is T2, melanocortin receptor-1 (MC1r), native …. This is another data set of the same source.
Assay [9] concerns the target melanocortin receptor-5 (MC5r), assay other than CEREP. This is another data set of the same source.
In assay [10] the target is T3, melanocortin receptor-3 (MC3r), …. The source holds these as a separate data set.
For assay [11], the target named is T4, human melanocortin receptor-5 (MC5), on …. This is another data set of the same source.
Assay [12] has as its target T5, melanocortin receptor-1 (MC1r), native …. The source holds these as a separate data set.

Read-outs that look alike come from different tables or passages of the source. Bridges are numbered along the chain shown (N, C = ends). [ ]: non-standard residue; d: D form. dPhe(4-F) = N[C@H](Cc1ccc(F)cc1)C(=O)O; Nle = CCCC[C@H](N)C(=O)O A value given as a limit tells only on which side of the number the result lay.

From US12692291 (PALATIN TECHNOLOGIES, dated 2026) come the findings set out here.

As a reminder, the EC50 is the midpoint of the concentration-response curve. Read a low EC50 as higher potency in that assay.

T3 sequence (P41968 whole entry): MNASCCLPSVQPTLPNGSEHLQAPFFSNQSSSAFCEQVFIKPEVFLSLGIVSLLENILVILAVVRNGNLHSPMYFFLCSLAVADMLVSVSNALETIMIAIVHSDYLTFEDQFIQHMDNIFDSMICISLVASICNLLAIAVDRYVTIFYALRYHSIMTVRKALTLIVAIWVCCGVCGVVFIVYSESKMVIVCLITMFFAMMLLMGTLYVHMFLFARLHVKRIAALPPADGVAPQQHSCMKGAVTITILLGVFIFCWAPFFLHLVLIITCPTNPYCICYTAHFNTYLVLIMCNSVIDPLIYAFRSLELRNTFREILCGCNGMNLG
T2 sequence (Q01726 whole entry): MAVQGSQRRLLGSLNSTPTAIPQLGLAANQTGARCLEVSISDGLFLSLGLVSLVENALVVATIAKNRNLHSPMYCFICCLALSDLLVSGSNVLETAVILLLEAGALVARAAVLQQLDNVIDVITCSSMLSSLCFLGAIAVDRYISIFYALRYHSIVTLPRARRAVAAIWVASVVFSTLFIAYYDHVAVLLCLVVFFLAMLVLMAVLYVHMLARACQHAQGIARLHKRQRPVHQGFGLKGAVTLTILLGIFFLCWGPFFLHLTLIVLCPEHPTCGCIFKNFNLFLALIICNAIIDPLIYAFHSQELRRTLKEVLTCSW
T1 sequence (P32245 whole entry): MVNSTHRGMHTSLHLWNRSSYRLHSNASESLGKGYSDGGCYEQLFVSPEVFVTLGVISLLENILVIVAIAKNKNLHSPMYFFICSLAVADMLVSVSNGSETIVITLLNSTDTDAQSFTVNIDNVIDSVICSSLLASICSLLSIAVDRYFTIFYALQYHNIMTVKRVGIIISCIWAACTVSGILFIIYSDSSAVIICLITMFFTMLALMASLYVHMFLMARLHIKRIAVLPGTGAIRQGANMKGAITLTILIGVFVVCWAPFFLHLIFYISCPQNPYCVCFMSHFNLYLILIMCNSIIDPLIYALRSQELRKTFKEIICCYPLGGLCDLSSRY
Sequence of melanocortin receptor-5 (MC5r), assay other than CEREP (P33032 whole entry): as the sequence (P33032 whole entry) above

B1: Peptide No. 60, Ac-Nle-cyclo(Glu-His-D-Phe(4-F)-Arg-Trp-NH-(CH2)4-NH) (peptide)
peptide: Ac-[Nle]EH[dPhe(4-F)]RW
modifications: bridge 2-C; not fully specified (C-terminus, bridges); printed as Ac-Nle-cyclo(Glu-His-D-Phe(4-F)-Arg-Trp-NH-(CH2)4-NH)
B1: the “EC50 (nM), cAMP accumulation” value in assay [1] turned out to be 2 nM; in [2], 0.13 nM; in [4] it was 0.77 nM; in assay [6], 0.02 nM; in assay [7], 2 nM; in assay [8], 0.13 nM. The “EC50 (nM), cAMP accumulation” value in assay [10] stood at 0.77 nM; in assay [12], 0.02 nM. Further, the “Fold Peptide No. 60 More Potent Than α-MSH (ratio of EC50 values)” value in assay [1] worked out at 1.5 fold; in assay [2], 69 fold; in assay [3], 686 fold; in assay [4], 3.9 fold; in assay [6], 11 fold. Moreover, the “EC50” value in assay [3] and in assay [9] was 0.15 nM throughout. The “EC50 (nM), cAMP production, HTRF, CEREP” value in [5] and in assay [11] was 0.39 nM each time. Further, the “Fold Peptide No. 60 More Potent Than α-MSH (ratio of EC50 values, CEREP)” value in assay [5] was 930 fold. Further, the “Fold Peptide No. 60 More Potent Than Bremelanotide (ratio of EC50 values)” value in assay [7] is 0.5 fold; in [8], 0.78 fold; in [9] it was 22500 fold; in [10], 4 fold; in assay [12], 5 fold. For the same molecule, in assay [11], the “Fold Peptide No. 60 More Potent Than Bremelanotide (ratio of EC50 values, CEREP)” value was above 25000 fold.
